In the Human Domainome abundance scans (Beltran et al. 2025):
± gives the uncertainty stated by the source.

B1: Metastasis-associated protein MTA3, residues 265 to 317; numbered along this chain, Q9BTC8 (parent)
chain: RDEMEEWSASEASLFEEALEKYGKDFNDIRQDFLPWKSLTSIIEYYYMWKTTD

Variants of: B1
Experiment: abundance fitness (aPCA) (normalised: wild type 0, dead -1); higher = more abundant; growth selection in yeast, the domain comes from the species named
Conditions: Homo sapiens

Going from RDEMEEWSASEASLFEEALEKQGKDFNDIRQDFLPWKSLTSIIEYYYMWKTTD [Y22Q] to RDEMEEWSASEASLFEEALEKRGKDFNDIRQDFLPWKSLTSIIEYYYMWKTTD [Y22R], the abundance fitness rises from -0.921 ± 0.18 to -0.2 ± 0.079.

RDEMEEWSASEASLFEEALEKSGKDFNDIRQDFLPWKSLTSIIEYYYMWKTTD [Y22S] and RDEMEEWSASEASLFEEALEKTGKDFNDIRQDFLPWKSLTSIIEYYYMWKTTD [Y22T] are within error of each other in abundance fitness: -0.53 ± 0.088 for the first, -0.599 ± 0.15 for the second.

Compared with RDEMEEWSASEASLFEEALEKVGKDFNDIRQDFLPWKSLTSIIEYYYMWKTTD [Y22V], RDEMEEWSASEASLFEEALEKWGKDFNDIRQDFLPWKSLTSIIEYYYMWKTTD [Y22W] is lower in abundance fitness: 0.068 ± 0.16 for the first, -0.84 ± 0.28 for the second.

RDEMEEWSASEASLFEEALEKYAKDFNDIRQDFLPWKSLTSIIEYYYMWKTTD [G23A] and RDEMEEWSASEASLFEEALEKYCKDFNDIRQDFLPWKSLTSIIEYYYMWKTTD [G23C] are within error of each other in abundance fitness: -0.536 ± 0.12 for the first, -0.368 ± 0.1 for the second.

RDEMEEWSASEASLFEEALEKYDKDFNDIRQDFLPWKSLTSIIEYYYMWKTTD [G23D] and RDEMEEWSASEASLFEEALEKYEKDFNDIRQDFLPWKSLTSIIEYYYMWKTTD [G23E] are within error of each other in abundance fitness: -0.558 ± 0.19 for the first, -0.815 ± 0.26 for the second.

RDEMEEWSASEASLFEEALEKYHKDFNDIRQDFLPWKSLTSIIEYYYMWKTTD [G23H] and RDEMEEWSASEASLFEEALEKYIKDFNDIRQDFLPWKSLTSIIEYYYMWKTTD [G23I] are within error of each other in abundance fitness: -0.784 ± 0.22 for the first, -1.01 ± 0.24 for the second.

RDEMEEWSASEASLFEEALEKYKKDFNDIRQDFLPWKSLTSIIEYYYMWKTTD [G23K] and RDEMEEWSASEASLFEEALEKYLKDFNDIRQDFLPWKSLTSIIEYYYMWKTTD [G23L] are within error of each other in abundance fitness: -1.05 ± 0.35 for the first, -0.745 ± 0.086 for the second.

RDEMEEWSASEASLFEEALEKYMKDFNDIRQDFLPWKSLTSIIEYYYMWKTTD [G23M] and RDEMEEWSASEASLFEEALEKYNKDFNDIRQDFLPWKSLTSIIEYYYMWKTTD [G23N] are within error of each other in abundance fitness: -0.735 ± 0.11 for the first, -0.638 ± 0.19 for the second.

RDEMEEWSASEASLFEEALEKYPKDFNDIRQDFLPWKSLTSIIEYYYMWKTTD [G23P] and RDEMEEWSASEASLFEEALEKYQKDFNDIRQDFLPWKSLTSIIEYYYMWKTTD [G23Q] are within error of each other in abundance fitness: -0.81 ± 0.16 for the first, -0.759 ± 0.11 for the second.

RDEMEEWSASEASLFEEALEKYRKDFNDIRQDFLPWKSLTSIIEYYYMWKTTD [G23R] and RDEMEEWSASEASLFEEALEKYSKDFNDIRQDFLPWKSLTSIIEYYYMWKTTD [G23S] are within error of each other in abundance fitness: -0.844 ± 0.13 for the first, -0.792 ± 0.099 for the second.

RDEMEEWSASEASLFEEALEKYTKDFNDIRQDFLPWKSLTSIIEYYYMWKTTD [G23T] and RDEMEEWSASEASLFEEALEKYVKDFNDIRQDFLPWKSLTSIIEYYYMWKTTD [G23V] are within error of each other in abundance fitness: -0.92 ± 0.22 for the first, -0.888 ± 0.11 for the second.

RDEMEEWSASEASLFEEALEKYWKDFNDIRQDFLPWKSLTSIIEYYYMWKTTD [G23W] and RDEMEEWSASEASLFEEALEKYYKDFNDIRQDFLPWKSLTSIIEYYYMWKTTD [G23Y] are within error of each other in abundance fitness: -0.868 ± 0.29 for the first, -0.353 ± 0.36 for the second.

RDEMEEWSASEASLFEEALEKYGADFNDIRQDFLPWKSLTSIIEYYYMWKTTD [K24A] and RDEMEEWSASEASLFEEALEKYGCDFNDIRQDFLPWKSLTSIIEYYYMWKTTD [K24C] are within error of each other in abundance fitness: 0.104 ± 0.075 for the first, 0.163 ± 0.071 for the second.

RDEMEEWSASEASLFEEALEKYGDDFNDIRQDFLPWKSLTSIIEYYYMWKTTD [K24D] and RDEMEEWSASEASLFEEALEKYGEDFNDIRQDFLPWKSLTSIIEYYYMWKTTD [K24E] are within error of each other in abundance fitness: -0.165 ± 0.096 for the first, -0.133 ± 0.17 for the second.

Going from RDEMEEWSASEASLFEEALEKYGFDFNDIRQDFLPWKSLTSIIEYYYMWKTTD [K24F] to RDEMEEWSASEASLFEEALEKYGGDFNDIRQDFLPWKSLTSIIEYYYMWKTTD [K24G], the abundance fitness rises from -0.992 ± 0.19 to -0.208 ± 0.13.

RDEMEEWSASEASLFEEALEKYGHDFNDIRQDFLPWKSLTSIIEYYYMWKTTD [K24H] and RDEMEEWSASEASLFEEALEKYGIDFNDIRQDFLPWKSLTSIIEYYYMWKTTD [K24I] are within error of each other in abundance fitness: -0.362 ± 0.08 for the first, -0.536 ± 0.17 for the second.

First: RDEMEEWSASEASLFEEALEKYGLDFNDIRQDFLPWKSLTSIIEYYYMWKTTD [K24L]
Second: RDEMEEWSASEASLFEEALEKYGNDFNDIRQDFLPWKSLTSIIEYYYMWKTTD [K24N]
The abundance fitness of the first is lower: -0.006 ± 0.076 for the first, 0.333 ± 0.17 for the second.

Compared with RDEMEEWSASEASLFEEALEKYGPDFNDIRQDFLPWKSLTSIIEYYYMWKTTD [K24P], RDEMEEWSASEASLFEEALEKYGQDFNDIRQDFLPWKSLTSIIEYYYMWKTTD [K24Q] is lower in abundance fitness: 0.307 ± 0.061 for the first, -0.062 ± 0.074 for the second.

RDEMEEWSASEASLFEEALEKYGRDFNDIRQDFLPWKSLTSIIEYYYMWKTTD [K24R] and RDEMEEWSASEASLFEEALEKYGSDFNDIRQDFLPWKSLTSIIEYYYMWKTTD [K24S] are within error of each other in abundance fitness: -0.151 ± 0.094 for the first, -0.108 ± 0.076 for the second.

Compared with RDEMEEWSASEASLFEEALEKYGVDFNDIRQDFLPWKSLTSIIEYYYMWKTTD [K24V], RDEMEEWSASEASLFEEALEKYGWDFNDIRQDFLPWKSLTSIIEYYYMWKTTD [K24W] is lower in abundance fitness: -0.217 ± 0.095 for the first, -0.935 ± 0.38 for the second.

First: RDEMEEWSASEASLFEEALEKYGYDFNDIRQDFLPWKSLTSIIEYYYMWKTTD [K24Y]
Second: RDEMEEWSASEASLFEEALEKYGKAFNDIRQDFLPWKSLTSIIEYYYMWKTTD [D25A]
The abundance fitness of the first is lower: -0.331 ± 0.18 for the first, 0.556 ± 0.086 for the second.

RDEMEEWSASEASLFEEALEKYGKCFNDIRQDFLPWKSLTSIIEYYYMWKTTD [D25C] and RDEMEEWSASEASLFEEALEKYGKEFNDIRQDFLPWKSLTSIIEYYYMWKTTD [D25E] are within error of each other in abundance fitness: -0.026 ± 0.11 for the first, -0.087 ± 0.19 for the second.

RDEMEEWSASEASLFEEALEKYGKFFNDIRQDFLPWKSLTSIIEYYYMWKTTD [D25F] and RDEMEEWSASEASLFEEALEKYGKGFNDIRQDFLPWKSLTSIIEYYYMWKTTD [D25G] are within error of each other in abundance fitness: -0.594 ± 0.28 for the first, -0.47 ± 0.16 for the second.

RDEMEEWSASEASLFEEALEKYGKHFNDIRQDFLPWKSLTSIIEYYYMWKTTD [D25H] and RDEMEEWSASEASLFEEALEKYGKIFNDIRQDFLPWKSLTSIIEYYYMWKTTD [D25I] are within error of each other in abundance fitness: -0.125 ± 0.14 for the first, -0.162 ± 0.18 for the second.

Going from RDEMEEWSASEASLFEEALEKYGKKFNDIRQDFLPWKSLTSIIEYYYMWKTTD [D25K] to RDEMEEWSASEASLFEEALEKYGKLFNDIRQDFLPWKSLTSIIEYYYMWKTTD [D25L], the abundance fitness falls from 0.375 ± 0.081 to -0.741 ± 0.13.
